According to patent publication US20030186334A1, “KTS-disintegrins” (Temple University - Of the Commonwealth System of Higher …, priority 2001, published 2003):

T1: αvβ3 integrin, P06756
T1 chain 1: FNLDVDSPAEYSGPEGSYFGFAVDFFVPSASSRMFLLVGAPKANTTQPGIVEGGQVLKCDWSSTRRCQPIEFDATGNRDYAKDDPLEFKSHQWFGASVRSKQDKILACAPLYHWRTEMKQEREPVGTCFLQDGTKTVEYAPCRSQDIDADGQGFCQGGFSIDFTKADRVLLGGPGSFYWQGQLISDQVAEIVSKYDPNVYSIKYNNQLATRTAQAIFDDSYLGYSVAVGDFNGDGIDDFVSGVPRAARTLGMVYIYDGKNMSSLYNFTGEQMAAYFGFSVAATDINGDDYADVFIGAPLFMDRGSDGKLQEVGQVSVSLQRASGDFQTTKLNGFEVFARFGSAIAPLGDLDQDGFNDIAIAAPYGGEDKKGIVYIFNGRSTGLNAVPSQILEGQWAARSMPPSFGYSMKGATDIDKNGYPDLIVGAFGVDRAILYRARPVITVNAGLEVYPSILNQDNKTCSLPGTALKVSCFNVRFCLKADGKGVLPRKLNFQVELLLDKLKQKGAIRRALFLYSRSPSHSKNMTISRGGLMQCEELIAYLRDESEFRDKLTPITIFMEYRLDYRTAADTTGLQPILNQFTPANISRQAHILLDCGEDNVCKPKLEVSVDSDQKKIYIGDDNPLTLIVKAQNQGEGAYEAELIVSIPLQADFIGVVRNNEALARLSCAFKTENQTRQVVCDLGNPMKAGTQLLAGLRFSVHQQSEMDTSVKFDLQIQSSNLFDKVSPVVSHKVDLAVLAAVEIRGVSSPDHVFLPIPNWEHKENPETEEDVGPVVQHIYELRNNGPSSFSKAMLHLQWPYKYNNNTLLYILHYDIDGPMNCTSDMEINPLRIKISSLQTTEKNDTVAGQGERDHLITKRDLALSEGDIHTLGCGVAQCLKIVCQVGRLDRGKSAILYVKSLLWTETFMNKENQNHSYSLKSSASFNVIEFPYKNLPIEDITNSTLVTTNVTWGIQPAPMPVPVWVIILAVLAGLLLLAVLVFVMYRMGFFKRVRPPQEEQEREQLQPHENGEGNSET
T1 chain 2: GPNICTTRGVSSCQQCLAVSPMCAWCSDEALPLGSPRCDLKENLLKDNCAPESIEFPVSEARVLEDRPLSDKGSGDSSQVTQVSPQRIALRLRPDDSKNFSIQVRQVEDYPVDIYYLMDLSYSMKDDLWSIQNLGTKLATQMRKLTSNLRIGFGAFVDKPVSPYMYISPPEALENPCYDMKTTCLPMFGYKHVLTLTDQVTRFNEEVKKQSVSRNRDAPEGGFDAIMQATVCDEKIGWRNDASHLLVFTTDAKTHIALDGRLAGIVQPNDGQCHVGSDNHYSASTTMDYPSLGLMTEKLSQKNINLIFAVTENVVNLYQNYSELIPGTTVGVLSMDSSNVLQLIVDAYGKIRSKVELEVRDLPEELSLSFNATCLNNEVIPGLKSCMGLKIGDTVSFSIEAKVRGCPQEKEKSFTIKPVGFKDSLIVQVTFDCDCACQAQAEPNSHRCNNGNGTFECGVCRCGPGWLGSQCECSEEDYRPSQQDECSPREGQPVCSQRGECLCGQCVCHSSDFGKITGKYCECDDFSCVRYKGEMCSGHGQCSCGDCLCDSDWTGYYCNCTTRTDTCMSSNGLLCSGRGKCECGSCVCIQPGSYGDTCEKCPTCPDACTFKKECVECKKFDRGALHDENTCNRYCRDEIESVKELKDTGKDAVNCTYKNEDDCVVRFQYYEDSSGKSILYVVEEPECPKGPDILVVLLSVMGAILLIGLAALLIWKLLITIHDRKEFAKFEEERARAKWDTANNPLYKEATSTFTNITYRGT

T2: mouse α1β1 integrin (mouse), Q3V3R4
T2 chain 1: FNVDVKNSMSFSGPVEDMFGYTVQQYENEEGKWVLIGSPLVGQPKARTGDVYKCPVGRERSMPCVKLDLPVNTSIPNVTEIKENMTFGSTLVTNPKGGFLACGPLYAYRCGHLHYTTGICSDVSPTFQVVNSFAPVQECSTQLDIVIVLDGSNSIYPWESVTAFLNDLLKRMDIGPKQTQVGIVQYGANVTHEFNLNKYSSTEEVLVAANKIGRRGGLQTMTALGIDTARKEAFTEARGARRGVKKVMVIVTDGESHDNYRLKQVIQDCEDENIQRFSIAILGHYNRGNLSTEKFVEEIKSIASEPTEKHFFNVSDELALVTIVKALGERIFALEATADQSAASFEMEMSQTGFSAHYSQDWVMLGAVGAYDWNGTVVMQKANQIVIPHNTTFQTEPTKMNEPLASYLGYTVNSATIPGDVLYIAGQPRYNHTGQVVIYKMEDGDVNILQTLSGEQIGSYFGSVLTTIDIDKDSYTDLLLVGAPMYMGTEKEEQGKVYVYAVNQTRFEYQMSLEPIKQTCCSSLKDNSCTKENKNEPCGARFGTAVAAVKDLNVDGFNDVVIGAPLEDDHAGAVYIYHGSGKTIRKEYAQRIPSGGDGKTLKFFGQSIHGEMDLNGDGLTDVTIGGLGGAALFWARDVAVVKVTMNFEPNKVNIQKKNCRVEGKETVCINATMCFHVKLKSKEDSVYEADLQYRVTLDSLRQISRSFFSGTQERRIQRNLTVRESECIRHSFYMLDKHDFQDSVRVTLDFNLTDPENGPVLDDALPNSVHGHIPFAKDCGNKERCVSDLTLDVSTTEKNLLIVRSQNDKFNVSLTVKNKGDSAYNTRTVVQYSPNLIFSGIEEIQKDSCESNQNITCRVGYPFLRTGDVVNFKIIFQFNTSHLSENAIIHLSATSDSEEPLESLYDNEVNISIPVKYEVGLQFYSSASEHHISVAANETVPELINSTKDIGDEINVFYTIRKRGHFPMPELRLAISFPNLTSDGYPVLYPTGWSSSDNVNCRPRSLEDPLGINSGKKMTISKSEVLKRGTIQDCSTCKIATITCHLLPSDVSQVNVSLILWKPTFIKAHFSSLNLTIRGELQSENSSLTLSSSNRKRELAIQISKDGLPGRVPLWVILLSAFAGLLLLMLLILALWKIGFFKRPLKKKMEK
T2 chain 2: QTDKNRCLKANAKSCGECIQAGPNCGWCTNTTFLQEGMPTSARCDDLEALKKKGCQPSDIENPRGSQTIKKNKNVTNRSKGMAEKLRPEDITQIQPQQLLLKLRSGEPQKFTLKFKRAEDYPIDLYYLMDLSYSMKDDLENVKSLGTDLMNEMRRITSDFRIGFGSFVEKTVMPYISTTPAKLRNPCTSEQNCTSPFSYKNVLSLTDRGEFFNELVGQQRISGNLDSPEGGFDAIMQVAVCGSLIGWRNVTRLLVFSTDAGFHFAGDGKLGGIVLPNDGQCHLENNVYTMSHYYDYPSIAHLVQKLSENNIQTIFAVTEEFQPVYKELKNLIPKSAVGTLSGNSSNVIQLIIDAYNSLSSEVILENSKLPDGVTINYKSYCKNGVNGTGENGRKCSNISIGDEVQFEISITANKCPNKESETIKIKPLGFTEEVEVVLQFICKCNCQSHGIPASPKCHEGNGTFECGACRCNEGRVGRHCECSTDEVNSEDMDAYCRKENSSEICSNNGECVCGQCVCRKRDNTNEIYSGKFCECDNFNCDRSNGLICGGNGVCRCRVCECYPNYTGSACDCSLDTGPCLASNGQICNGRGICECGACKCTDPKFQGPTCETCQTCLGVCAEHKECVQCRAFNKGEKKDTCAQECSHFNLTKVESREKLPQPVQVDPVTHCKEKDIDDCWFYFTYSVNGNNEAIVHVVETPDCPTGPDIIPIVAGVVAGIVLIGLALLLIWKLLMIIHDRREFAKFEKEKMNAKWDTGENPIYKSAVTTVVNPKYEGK


What follows are binders tested against αIIbβ3 integrin, P08514 (assay: inhibition of adhesion of A5 cells to fibrinogen).

Binder | IC50 [nM]
CTTGPCCRQCKLKPAGTTCWKTSLTSHYCTGKSCDCPLYPG (modifications not checked) [obtustatin] | > 10000

These binders were tested against α4β1 integrin, P13612 (assay: inhibition of adhesion of Jurkat cells to VCAM-1).

Binder | IC50 [nM]
CTTGPCCRQCKLKPAGTTCWKTSLTSHYCTGKSCDCPLYPG (modifications not checked) [obtustatin] | > 10000
CTTGPCCRQCKLKPAGTTCWKTSRTSHYCTGKSCDCPVYQG (modifications not checked) [viperisrastatin] | > 10000

Biological target: αIIbβ3 integrin, P08514
Assay: inhibition of adhesion of A5 cells to fibrinogen
Remark: another data set of the same source

Binder | IC50 [nM]
CTTGPCCRQCKLKPAGTTCWKTSRTSHYCTGKSCDCPVYQG (modifications not checked) [viperisrastatin] | > 10000

Biological target: T1, αvβ3 integrin, P06756
Assay: inhibition of adhesion of JY cells to vitronectin

Binder | IC50 [nM]
CTTGPCCRQCKLKPAGTTCWKTSLTSHYCTGKSCDCPLYPG (modifications not checked) [obtustatin] | > 10000
CTTGPCCRQCKLKPAGTTCWKTSRTSHYCTGKSCDCPVYQG (modifications not checked) [viperisrastatin] | > 10000

These binders were tested against α9β1 integrin, Q13797 (assay: inhibition of adhesion of SW480α9 cells to VCAM-1).
α9β1 integrin, Q13797, sequence (Q13797 30-1035): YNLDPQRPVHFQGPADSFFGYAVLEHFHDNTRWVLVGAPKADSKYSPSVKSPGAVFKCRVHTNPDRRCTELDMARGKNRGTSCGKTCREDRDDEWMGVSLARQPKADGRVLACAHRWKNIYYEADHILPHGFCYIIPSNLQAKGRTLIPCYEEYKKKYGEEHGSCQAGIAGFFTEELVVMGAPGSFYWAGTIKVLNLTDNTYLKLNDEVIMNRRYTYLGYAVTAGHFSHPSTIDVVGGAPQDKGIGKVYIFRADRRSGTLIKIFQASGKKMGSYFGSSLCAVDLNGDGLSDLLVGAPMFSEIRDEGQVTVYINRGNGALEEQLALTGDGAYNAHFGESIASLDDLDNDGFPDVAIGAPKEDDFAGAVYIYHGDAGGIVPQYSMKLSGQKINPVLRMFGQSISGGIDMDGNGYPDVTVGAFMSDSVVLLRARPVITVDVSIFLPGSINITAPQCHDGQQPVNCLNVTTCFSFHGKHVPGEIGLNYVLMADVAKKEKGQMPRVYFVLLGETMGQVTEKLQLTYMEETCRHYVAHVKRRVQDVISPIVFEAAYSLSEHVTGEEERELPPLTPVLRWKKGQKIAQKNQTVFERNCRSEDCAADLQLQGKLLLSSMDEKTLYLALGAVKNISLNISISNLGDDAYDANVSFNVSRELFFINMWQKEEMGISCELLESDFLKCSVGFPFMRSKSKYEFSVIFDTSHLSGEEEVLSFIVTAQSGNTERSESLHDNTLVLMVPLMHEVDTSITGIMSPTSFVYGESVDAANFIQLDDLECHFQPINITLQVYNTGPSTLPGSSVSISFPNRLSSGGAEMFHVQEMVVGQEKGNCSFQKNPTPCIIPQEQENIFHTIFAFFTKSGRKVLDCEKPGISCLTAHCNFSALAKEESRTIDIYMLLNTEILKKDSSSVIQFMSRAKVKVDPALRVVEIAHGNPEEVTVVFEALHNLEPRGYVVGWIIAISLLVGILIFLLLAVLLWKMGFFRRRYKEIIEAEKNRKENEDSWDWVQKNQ

Binder | IC50 [nM]
CTTGPCCRQCKLKPAGTTCWKTSLTSHYCTGKSCDCPLYPG (modifications not checked) [obtustatin] | > 10000
CTTGPCCRQCKLKPAGTTCWKTSRTSHYCTGKSCDCPVYQG (modifications not checked) [viperisrastatin] | > 10000

Each binder was assayed against α5β1 integrin, P08648 (assay: inhibition of adhesion of K562 cells to fibronectin).
Target sequence in this assay (P08648 42-1049): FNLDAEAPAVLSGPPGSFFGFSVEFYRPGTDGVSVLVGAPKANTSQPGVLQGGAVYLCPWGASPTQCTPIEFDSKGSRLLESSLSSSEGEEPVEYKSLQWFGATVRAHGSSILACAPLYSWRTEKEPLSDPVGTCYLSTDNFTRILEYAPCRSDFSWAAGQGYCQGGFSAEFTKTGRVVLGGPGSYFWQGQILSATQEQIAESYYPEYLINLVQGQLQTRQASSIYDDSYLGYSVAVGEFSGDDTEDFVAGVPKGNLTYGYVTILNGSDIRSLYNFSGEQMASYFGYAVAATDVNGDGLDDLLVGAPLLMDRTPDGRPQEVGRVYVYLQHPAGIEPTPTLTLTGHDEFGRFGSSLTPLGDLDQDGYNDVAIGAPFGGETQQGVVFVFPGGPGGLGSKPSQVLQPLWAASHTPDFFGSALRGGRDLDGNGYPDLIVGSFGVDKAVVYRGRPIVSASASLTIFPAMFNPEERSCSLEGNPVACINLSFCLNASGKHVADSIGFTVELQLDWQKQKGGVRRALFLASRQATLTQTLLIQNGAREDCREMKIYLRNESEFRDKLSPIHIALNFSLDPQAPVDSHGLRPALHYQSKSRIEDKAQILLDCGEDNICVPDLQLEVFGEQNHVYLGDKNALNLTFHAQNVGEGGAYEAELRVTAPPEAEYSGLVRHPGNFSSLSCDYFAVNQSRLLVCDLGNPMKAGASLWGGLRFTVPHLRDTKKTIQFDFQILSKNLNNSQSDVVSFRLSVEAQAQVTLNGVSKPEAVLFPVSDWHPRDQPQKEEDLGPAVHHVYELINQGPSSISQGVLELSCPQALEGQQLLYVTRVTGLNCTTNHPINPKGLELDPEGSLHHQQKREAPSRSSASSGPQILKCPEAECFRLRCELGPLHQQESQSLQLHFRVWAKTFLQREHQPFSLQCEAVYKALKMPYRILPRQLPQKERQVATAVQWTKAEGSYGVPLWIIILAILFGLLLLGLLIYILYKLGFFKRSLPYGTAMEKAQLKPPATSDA

Binder | IC50 [nM]
CTTGPCCRQCKLKPAGTTCWKTSLTSHYCTGKSCDCPLYPG (modifications not checked) [obtustatin] | > 10000

Biological target: α5β1 integrin, P08648
Assay: as above
Remark: another data set of the same source
Target sequence in this assay (P08648 42-1049, chain 1 of 2): as the sequence (P08648 42-1049) above
Target sequence in this assay (P05556 21-798, chain 2 of 2, further chain): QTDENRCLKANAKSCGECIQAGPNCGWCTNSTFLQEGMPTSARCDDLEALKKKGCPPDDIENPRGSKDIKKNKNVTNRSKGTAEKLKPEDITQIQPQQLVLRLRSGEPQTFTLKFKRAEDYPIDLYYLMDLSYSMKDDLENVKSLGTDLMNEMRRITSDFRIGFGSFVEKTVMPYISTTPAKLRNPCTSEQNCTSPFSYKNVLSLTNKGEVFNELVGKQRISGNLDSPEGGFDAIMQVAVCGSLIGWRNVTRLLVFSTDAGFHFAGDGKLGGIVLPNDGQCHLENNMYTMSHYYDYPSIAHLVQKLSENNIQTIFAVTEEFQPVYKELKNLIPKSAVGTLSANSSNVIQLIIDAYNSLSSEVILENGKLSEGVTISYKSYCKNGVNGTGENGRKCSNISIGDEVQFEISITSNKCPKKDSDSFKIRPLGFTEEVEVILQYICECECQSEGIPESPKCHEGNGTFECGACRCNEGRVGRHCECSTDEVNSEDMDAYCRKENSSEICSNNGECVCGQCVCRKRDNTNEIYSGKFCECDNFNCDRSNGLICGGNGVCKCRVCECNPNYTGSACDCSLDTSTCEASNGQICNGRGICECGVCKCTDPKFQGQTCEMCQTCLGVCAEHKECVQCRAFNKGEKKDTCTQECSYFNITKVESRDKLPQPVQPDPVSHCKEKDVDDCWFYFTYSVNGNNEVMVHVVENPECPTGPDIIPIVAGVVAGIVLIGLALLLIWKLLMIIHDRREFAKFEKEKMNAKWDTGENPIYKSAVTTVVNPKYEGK

Binder | IC50 [nM]
CTTGPCCRQCKLKPAGTTCWKTSLTSHYCTGKSCDCPLYPG (modifications not checked) [obtustatin] | > 5000
CTTGPCCRQCKLKPAGTTCWKTSRTSHYCTGKSCDCPVYQG (modifications not checked) [viperisrastatin] | > 10000

What follows are binders tested against α2β1 integrin, P17301 (assay: inhibition of adhesion of α2K562 cells to collagen I).

Binder | IC50 [nM]
CTTGPCCRQCKLKPAGTTCWKTSLTSHYCTGKSCDCPLYPG (modifications not checked) [obtustatin] | > 10000
CTTGPCCRQCKLKPAGTTCWKTSRTSHYCTGKSCDCPVYQG (modifications not checked) [viperisrastatin] | > 10000

These binders were tested against human α1β1 integrin (human), P56199 (assay: inhibition of adhesion of α1K562 cells to collagen I).
Target sequence in this assay (P56199 29-1179, chain 1 of 2): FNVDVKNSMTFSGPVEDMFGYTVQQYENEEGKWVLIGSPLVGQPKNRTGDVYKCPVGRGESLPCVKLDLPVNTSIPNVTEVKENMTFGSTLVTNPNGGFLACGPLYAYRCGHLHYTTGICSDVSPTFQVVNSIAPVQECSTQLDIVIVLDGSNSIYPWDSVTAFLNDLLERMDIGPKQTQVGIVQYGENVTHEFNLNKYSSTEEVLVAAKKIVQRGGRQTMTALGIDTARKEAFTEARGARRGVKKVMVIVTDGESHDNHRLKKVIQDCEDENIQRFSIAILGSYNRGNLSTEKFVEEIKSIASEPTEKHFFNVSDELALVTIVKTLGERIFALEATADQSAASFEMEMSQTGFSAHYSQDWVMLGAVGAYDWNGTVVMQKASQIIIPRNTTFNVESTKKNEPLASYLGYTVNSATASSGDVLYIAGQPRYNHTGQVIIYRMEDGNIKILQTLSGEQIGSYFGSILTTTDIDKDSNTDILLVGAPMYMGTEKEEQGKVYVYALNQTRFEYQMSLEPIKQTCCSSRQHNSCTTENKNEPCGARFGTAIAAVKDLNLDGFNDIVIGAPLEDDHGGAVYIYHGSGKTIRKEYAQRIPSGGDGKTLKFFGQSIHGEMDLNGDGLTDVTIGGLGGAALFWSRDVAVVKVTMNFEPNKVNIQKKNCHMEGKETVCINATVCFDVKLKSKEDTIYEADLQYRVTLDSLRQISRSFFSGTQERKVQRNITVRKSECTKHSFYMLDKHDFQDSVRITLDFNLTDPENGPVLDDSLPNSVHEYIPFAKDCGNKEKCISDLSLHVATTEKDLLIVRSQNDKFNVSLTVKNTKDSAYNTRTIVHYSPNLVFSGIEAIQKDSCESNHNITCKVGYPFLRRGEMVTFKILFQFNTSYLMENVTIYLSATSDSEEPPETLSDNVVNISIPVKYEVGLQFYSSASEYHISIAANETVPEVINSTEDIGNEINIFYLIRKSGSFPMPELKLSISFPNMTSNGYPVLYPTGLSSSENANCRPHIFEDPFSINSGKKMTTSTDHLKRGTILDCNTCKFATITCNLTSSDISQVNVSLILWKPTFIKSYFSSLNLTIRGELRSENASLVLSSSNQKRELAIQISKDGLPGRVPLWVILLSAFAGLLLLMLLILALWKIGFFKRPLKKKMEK
Target sequence in this assay (P05556 21-798, chain 2 of 2, further chain): as the sequence (P05556 21-798, chain 2 of 2, further chain) above

Binder | IC50 [nM]
CTTGPCCRQCKLKPAGTTCWKTSLTSHYCTGKSCDCPLYPG (modifications not checked) [obtustatin] | 0.5
CTTGPCCRQCKLKPAGTTCWKTSRTSHYCTGKSCDCPVYQG (modifications not checked) [viperisrastatin] | 0.02

These binders were tested against human α1β1 integrin (human), P56199 (assay: inhibition of adhesion of α1K562 cells to collagen IV).
Target sequence in this assay (P56199 29-1179, chain 1 of 2): as the sequence (P56199 29-1179, chain 1 of 2) above
Target sequence in this assay (P05556 21-798, chain 2 of 2, further chain): as the sequence (P05556 21-798, chain 2 of 2, further chain) above

Binder | IC50 [nM]
CTTGPCCRQCKLKPAGTTCWKTSLTSHYCTGKSCDCPLYPG (modifications not checked) [obtustatin] | 2
CTTGPCCRQCKLKPAGTTCWKTSRTSHYCTGKSCDCPVYQG (modifications not checked) [viperisrastatin] | 0.08

Biological target: T2, mouse α1β1 integrin (mouse), Q3V3R4
Assay: inhibition of adhesion of B16F10 cells to collagen IV

Binder | IC50 [nM]
CTTGPCCRQCKLKPAGTTCWKTSLTSHYCTGKSCDCPLYPG (modifications not checked) [obtustatin] | 0.2
CTTGPCCRQCKLKPAGTTCWKTSRTSHYCTGKSCDCPVYQG (modifications not checked) [viperisrastatin] | 0.25

These binders were tested against human α1β1 integrin (human), P56199 (assay: inhibition of adhesion of HS.939T cells to collagen IV).
Target sequence in this assay (P56199 29-1179, chain 1 of 2): as the sequence (P56199 29-1179, chain 1 of 2) above
Target sequence in this assay (P05556 21-798, chain 2 of 2, further chain): as the sequence (P05556 21-798, chain 2 of 2, further chain) above

Binder | IC50 [nM]
CTTGPCCRQCKLKPAGTTCWKTSLTSHYCTGKSCDCPLYPG (modifications not checked) [obtustatin] | 0.1
CTTGPCCRQCKLKPAGTTCWKTSRTSHYCTGKSCDCPVYQG (modifications not checked) [viperisrastatin] | 0.002

The binders below were run against human α1β1 integrin (human), P56199 (assay: inhibition of adhesion of α1K562 cells to immobilised collagen IV).

Binder | IC50 [nM]
CWKTSLTSHYC (modifications not checked) [synthetic peptide … (SEQ ID NO: 5)] | 600000
CTTGPCCRQCKLKPAGTTCWKTSLTSHYCTGKSCDCPLYPG (modifications not checked) [obtustatin] | 2
